Reference: PMC2992810
Read-outs that look alike come from different tables or passages of the source.

Tests used:
[1] = target: MC2R-MRAP complex (HA-hMC2R co-expressed with mMRAP on CHO cells) (human | mouse) (UniProt Q01718); test: radioligand binding
[2] = target: MC2R-MRAP2 complex (HA-hMC2R co-expressed with mMRAP2 on CHO cells) (human | mouse) (UniProt Q01718)
[3] = target: MC2R-MRAP complex (HA-hMC2R co-expressed with mMRAP on CHO cells) (human | mouse) (UniProt Q01718)
[4] = target: MC2R-MRAP complex (HA-hMC2R co-expressed with mMRAP on CHO cells) (human | mouse) (UniProt Q01718); remark: listed apart in the source
[5] = target: HA-hMC4R (human) (UniProt P32245); test: radioligand binding
[6] = target: HA-hMC4R (human) (UniProt P32245); test: radioligand binding; remark: listed apart in the source
[7] = target: HA-hMC4R (human) (UniProt P32245)
[8] = target: HA-hMC4R (human) (UniProt P32245); test: radioligand binding; remark: listed apart in the source

UniProt P32245, sequence (P32245 whole entry): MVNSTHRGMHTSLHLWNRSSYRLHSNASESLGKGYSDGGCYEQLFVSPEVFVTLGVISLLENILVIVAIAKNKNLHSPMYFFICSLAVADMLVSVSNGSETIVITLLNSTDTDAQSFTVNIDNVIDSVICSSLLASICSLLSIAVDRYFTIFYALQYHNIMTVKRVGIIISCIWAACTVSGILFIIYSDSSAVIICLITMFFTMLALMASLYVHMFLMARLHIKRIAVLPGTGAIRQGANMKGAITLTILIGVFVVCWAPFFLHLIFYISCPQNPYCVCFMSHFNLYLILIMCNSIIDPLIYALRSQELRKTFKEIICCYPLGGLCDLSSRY

IC50 [1] | EC50 of phosphorylation of ERK1 and ERK2 in serum-deprived HEK 293 cells (5 min) [2] | EC50 of phosphorylation of ERK1 and ERK2 in serum-deprived HEK 293 cells (5 min) [3] | EC50 of cAMP accumulation (LANCE assay, 20 min) in CHO cells [4] | IC50 [5] | IC50 [6] | EC50 of the CRE-Luc cAMP reporter response in CHO cells containing MC4R alone [7] | EC50 of the CRE-Luc cAMP reporter response in CHO cells containing MC4R and MRAP [7] | IC50 [8] | Substance
5.7 nM | 68 nM | 1.1 nM | 2.4 nM | – | – | – | – | – | ACTH(1–39) (peptide)
– | – | – | – | 0.92 nM | 0.19 nM | 0.11 nM | 0.27 nM | 1.1 nM | NDP-α-MSH (peptide)
